In article PMC10397247:

How the values were obtained:
Experiment in all cases: two-hybrid library CCmax;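 note: natural log of median RNA to DNA barcode read ratio; higher means stronger binding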
4H3417-AA = target: T1, 4H3417-AA
T1 chain: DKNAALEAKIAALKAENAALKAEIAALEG

4H3446-AA = target: T2, 4H3446-AA; settings: mean of both orientations
T2 chain: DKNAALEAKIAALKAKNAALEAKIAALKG

4H3591-AA = target: T3, 4H3591-AA; settings: mean of both orientations
T3 chain: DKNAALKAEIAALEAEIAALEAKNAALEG

4H3628-AA = target: T4, 4H3628-AA; settings: mean of both orientations
T4 chain: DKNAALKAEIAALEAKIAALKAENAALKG

4H3666-AA = target: T5, 4H3666-AA; settings: mean of both orientations
T5 chain: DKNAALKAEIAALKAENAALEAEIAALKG

4H3709-AA = target: T6, 4H3709-AA; settings: mean of both orientations
T6 chain: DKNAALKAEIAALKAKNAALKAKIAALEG

4H391-AA = target: T7, 4H391-AA; settings: mean of both orientations
T7 chain: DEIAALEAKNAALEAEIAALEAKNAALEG

4H3920-AA = target: T8, 4H3920-AA; settings: mean of both orientations
T8 chain: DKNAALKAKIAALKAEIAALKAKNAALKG

4H3939-AA = target: T9, 4H3939-AA; settings: mean of both orientations
T9 chain: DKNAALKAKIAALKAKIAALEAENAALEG

4H428-AA = target: T10, 4H428-AA; settings: mean of both orientations
T10 chain: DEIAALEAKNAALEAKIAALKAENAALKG

4H478-AA = target: T11, 4H478-AA; settings: mean of both orientations
T11 chain: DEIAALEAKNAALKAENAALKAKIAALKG

4H497-AA = target: T12, 4H497-AA; settings: mean of both orientations
T12 chain: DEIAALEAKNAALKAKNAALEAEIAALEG

4H656-AA = target: T13, 4H656-AA; settings: mean of both orientations
T13 chain: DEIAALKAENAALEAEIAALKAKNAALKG

4H675-AA = target: T14, 4H675-AA; settings: mean of both orientations
T14 chain: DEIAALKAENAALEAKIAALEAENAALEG

4H971-AA = target: T15, 4H971-AA; settings: mean of both orientations
T15 chain: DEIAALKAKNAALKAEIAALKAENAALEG

4H2698-AA = target: T16, 4H2698-AA
T16 chain: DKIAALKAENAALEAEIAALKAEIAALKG

4H2725-AA = target: T17, 4H2725-AA; settings: mean of both orientations
T17 chain: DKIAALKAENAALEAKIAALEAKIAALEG

4H2865-AA = target: T18, 4H2865-AA; settings: mean of both orientations
T18 chain: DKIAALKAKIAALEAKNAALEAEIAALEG

4H3009-AA = target: T19, 4H3009-AA; settings: mean of both orientations
T19 chain: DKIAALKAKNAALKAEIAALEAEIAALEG

4H3016-AA = target: T20, 4H3016-AA; settings: mean of both orientations
T20 chain: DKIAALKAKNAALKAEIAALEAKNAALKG

4H310-AA = target: T21, 4H310-AA; settings: mean of both orientations
T21 chain: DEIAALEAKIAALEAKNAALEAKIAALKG

4H3120-AA = target: T22, 4H3120-AA; settings: mean of both orientations
T22 chain: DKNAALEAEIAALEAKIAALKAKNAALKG

4H3130-AA = target: T23, 4H3130-AA; settings: mean of both orientations
T23 chain: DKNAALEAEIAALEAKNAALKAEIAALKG

4H3165-AA = target: T24, 4H3165-AA; settings: mean of both orientations
T24 chain: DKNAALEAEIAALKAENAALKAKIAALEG

4H3381-AA = target: T25, 4H3381-AA; settings: mean of both orientations
T25 chain: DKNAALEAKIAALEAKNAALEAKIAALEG

4H3395-AA = target: T26, 4H3395-AA; settings: mean of both orientations
T26 chain: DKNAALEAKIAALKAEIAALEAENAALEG

4H3410-AA = target: T27, 4H3410-AA; settings: mean of both orientations
T27 chain: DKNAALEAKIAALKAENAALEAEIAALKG

4H3590-AA = target: T28, 4H3590-AA; settings: mean of both orientations
T28 chain: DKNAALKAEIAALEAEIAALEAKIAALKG

4H3697-AA = target: T29, 4H3697-AA; settings: mean of both orientations
T29 chain: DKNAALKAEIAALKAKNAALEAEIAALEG

4H3753-AA = target: T30, 4H3753-AA; settings: mean of both orientations
T30 chain: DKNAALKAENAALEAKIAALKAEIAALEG

4H3865-AA = target: T31, 4H3865-AA; settings: mean of both orientations
T31 chain: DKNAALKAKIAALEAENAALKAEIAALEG

4H458-AA = target: T32, 4H458-AA; settings: mean of both orientations
T32 chain: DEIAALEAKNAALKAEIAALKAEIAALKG

4H485-AA = target: T33, 4H485-AA; settings: mean of both orientations
T33 chain: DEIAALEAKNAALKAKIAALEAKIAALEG

4H536-AA = target: T34, 4H536-AA; settings: mean of both orientations
T34 chain: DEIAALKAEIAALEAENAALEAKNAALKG

4H570-AA = target: T35, 4H570-AA; settings: mean of both orientations
T35 chain: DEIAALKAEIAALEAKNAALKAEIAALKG

4H629-AA = target: T36, 4H629-AA; settings: mean of both orientations
T36 chain: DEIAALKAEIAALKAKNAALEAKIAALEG

4H710-AA = target: T37, 4H710-AA; settings: mean of both orientations
T37 chain: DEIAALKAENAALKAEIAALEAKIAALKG

4H745-AA = target: T38, 4H745-AA; settings: mean of both orientations
T38 chain: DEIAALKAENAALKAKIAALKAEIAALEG

4H797-AA = target: T39, 4H797-AA; settings: mean of both orientations
T39 chain: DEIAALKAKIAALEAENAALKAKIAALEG

4H850-AA = target: T40, 4H850-AA; settings: mean of both orientations
T40 chain: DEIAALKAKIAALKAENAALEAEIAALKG

4H891-AA = target: T41, 4H891-AA; settings: mean of both orientations
T41 chain: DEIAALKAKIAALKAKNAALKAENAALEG

4H909-AA = target: T42, 4H909-AA; settings: mean of both orientations
T42 chain: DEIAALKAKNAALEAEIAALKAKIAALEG

4H930-AA = target: T43, 4H930-AA; settings: mean of both orientations
T43 chain: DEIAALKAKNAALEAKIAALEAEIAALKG

4H94-AA = target: T44, 4H94-AA; settings: mean of both orientations
T44 chain: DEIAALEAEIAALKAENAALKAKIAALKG

Q: Which results are given for DKNAALEAKIAALKAENAALKAEIAALEG [4H3417-AA]?
A: interaction score (4H3417-AA): 0.336; interaction score (4H3446-AA): -0.679; interaction score (4H3591-AA): -1.37; interaction score (4H3628-AA): -1.29; interaction score (4H3666-AA): 1.09; interaction score (4H3709-AA): -0.223; interaction score (4H391-AA): -1.68; interaction score (4H3920-AA): -1.61; interaction score (4H3939-AA): -1.87; interaction score (4H428-AA): -0.935; interaction score (4H478-AA): 0.524; interaction score (4H497-AA): -1.9; interaction score (4H656-AA): 0.318; interaction score (4H675-AA): -0.587; interaction score (4H971-AA): -1.03

Q: What does the source list for DKIAALKAENAALEAEIAALKAEIAALKG [4H2698-AA]?
A: interaction score (4H2698-AA): 2.27; interaction score (4H2725-AA): -1.02; interaction score (4H2865-AA): 0.889; interaction score (4H3009-AA): 2.02; interaction score (4H3016-AA): 0.539; interaction score (4H310-AA): -0.185; interaction score (4H3120-AA): -1.3; interaction score (4H3130-AA): 1.19; interaction score (4H3165-AA): -1.39; interaction score (4H3381-AA): -0.904; interaction score (4H3395-AA): -1.65; interaction score (4H3410-AA): -1.56; interaction score (4H3590-AA): -0.95; interaction score (4H3697-AA): -1.12; interaction score (4H3753-AA): -1; interaction score (4H3865-AA): -1.07; interaction score (4H458-AA): 2.26; interaction score (4H485-AA): 1.49; interaction score (4H536-AA): -1.49; interaction score (4H570-AA): 0.35; interaction score (4H629-AA): -1.54; interaction score (4H710-AA): 1.79; interaction score (4H745-AA): 2.2; interaction score (4H797-AA): -1.25; interaction score (4H850-AA): -0.992; interaction score (4H891-AA): -1.59; interaction score (4H909-AA): -0.0319; interaction score (4H930-AA): -0.113; interaction score (4H94-AA): -0.915
